Data on two molecules can be found in patent publication US20100279937A1, “Method of Inhibiting Angiogenesis, Tumorigenesis and Cathepsin Activity” (priority 2006, published 2010).

One assay concerns the target T1, cathepsin B (Homo sapiens, UniProt P07858).
T1 construct: Levels of cathepsin B activity were also measured in U87MG CM alone or pre-incubated; endogenous in cells; host or cells: U87MG (ATCC), 3-day serum-free conditioned medium
Put plainly: Secreted cathepsin B activity in U87MG conditioned media. The conditions noted are these: 10 μM CA074-ME; overnight incubation. In kind it is biochemical. How it is done:
The human glioma cell line U87MG was established from surgically removed type III glioma/glioblastoma and obtained from ATCC. Cells (5×10^4 cells/ml) were plated in poly-L-lysine pre-coated dishes and grown at 37° C. in D-MEM (DME) supplemented with 100 U/ml penicillin, 100 μg/ml streptomycin and 10% heat-inactivated fetal bovine serum (FBS) (HyClone, Logan, Utah) in humidified atmosphere of 5% CO2/95% air until reached 80% confluence. Then, media were removed and the cells incubated for 3 days in serum-free DME to obtain conditioned media (CM). Conditioned media were collected and filtered (Millex-GV sterilizing filter membrane, 0.22 μm). Cells were then harvested for molecular and biochemical assays. […]

The test system of assay [1] is U87MG cells. The assay can be described thus: U87MG growth in semi-solid (soft) agar. The assay is classed as cell-based, human. The settings on record: Alamar Blue. How it is done: […] Approximately 15,000 cells±treatment were resuspended in 150 μl medium containing 0.3% agar, and seeded onto a well of a 24-well plate previously layered with 250 μl 0.6% agar. The solidified cell layer was covered with 50 μl DME±treatment which was replaced every three days over a 21 day period. Phase contrast images (6 fields/well) were captured using a digital video camera (Olympus U-CMT) and analyzed with Northern Eclipse v.5.0 software. Color images were transformed to grey scale, thresholded, and then converted to binary images. Number and area of colonies per field were calculated. In order to measure cell viability, at the end of the experiment, 40 μl alamar blue was added to each well and fluorescence readings were performed every 10 min for a period of 180 min. Experiments were repeated 2-3 times in triplicates.
For orientation: Alamar Blue is a resazurin reagent that responds to reducing activity.

Assay [2] concerns human brain endothelial cells (HBEC). Put plainly: Capillary-like tube (CLT) formation by HBEC on Matrigel (in vitro angiogenesis). In kind it is cell-based. The settings on record: 20 nM; stimuli U87MG CM, VEGF, IGF-1, bFGF; overnight. The procedure:
Human brain endothelial cells (HBEC) were obtained from small intracortical microvessels and capillaries (20-112 μm) harvested from temporal cortex from patients treated surgically for idiopathic epilepsy. Tissues were obtained with approval from the Institutional Research Ethics Committee. HBEC were separated from smooth muscle cells with cloning rings and grown at 37° C. in HBEC media containing Earle's salts, 25 mM 4-(2-hydroxyethyl)-1-piperazineethanesulfonic acid (HEPES), 4.35 g/L sodium bicarbonate, and 3 mM L-glutamine, 10% FBS, 5% human serum, 20% of media conditioned by murine melanoma cells (mouse melanoma, Cloudman S91, clone M-3, melanin-producing cells), 5 μg/ml insulin, […], 5 ng/ml selenium, and 10 μg/ml endothelial cell growth supplement. HBEC cultures were routinely characterized morphologically and biochemically.
In vitro angiogenesis was assessed by endothelial tube formation in growth factor reduced Matrigel™ (BD Bioscience, Bedford, Mass.). 24-well plates were coated with 300 μl of unpolymerized Matrigel™ (5-7 mg prot/ml) and allowed to polymerize for 90 min at 37° C. HBEC (40,000 cells) were suspended in 500 μl of either DME, serum-free U87MG CM (collected as described in Cell Cultures) or growth factors (VEGF, IGF-1, bFGF) in the absence or presence of 20 nM of either full length recombinant IGFBP-1 (IBP1, produced at BRI-NRC), IGFBP-2 (IBP2, produced at BRI-NRC and purchased from R&D systems, Minneapolis), IGFBP-3 (IBP3, from R&D systems), IGFBP-4 (IBP4, produced at BRI-NRC), IGFBP-5 (IBP5, produced at BRI-NRC and purchased from R&D systems) and IGFBP-6 (IBP6, from R&D systems) or the C-terminal protein fragments of IGFP-1 (CIBP1), IGFBP-2 (CIBP2), IGFBP-4 (CIBP4), IGFBP-5 (CIBP5) and IGFBP-6 (CIBP6), all produced at BRI-NRC). The ability of a synthetic membrane permeable cathepsin B inhibitor (CA074-ME, EMD Biosciences, Canada) to inhibit angiogenes and cathepsin B activity was also studied. CLT formation was analyzed after 24 h using an Olympus 1×50 microscope. Phase contrast images were captured with a digital video camera (Olympus U-CMT) and analyzed using Northern Eclipse v.5.0 software. Experiments were repeated three times. In order to determine the levels of cathepsin B activity in each experimental condition, at the end of the experiment, 6 μl of 26× Magic Red™ Cathepsin B reagent (Immunochemistry Technologies, LLC) were added to all the wells and maintained at 37° C. in dark for two hours. Cells were washed twice with HBSS and intracellular fluorescence quantification (530/25 nm excitation and 645/40 nm emission) was performed using a cytofluorimeter plate reader (Bio-Tek FL600).

Assay [3] has the same test system. The settings on record: disclosed in copending PCT/CA2006/000250; cited from earlier work.
In another assay the test system is U87MG cells on CAM. Put plainly: Experimental glioma assay: U87MG tumors on chick chorioallantoic membrane (CAM). The assay is classed as in vivo, chicken (Gallus gallus). How it is done:
Fertilized chicken (Gallus gallus) eggs were obtained from the Canadian Food Inspection Agency and placed into an egg incubator at 37° C. and 67-70% humidity (day 0). At day 3, windows were cut in the egg shell and covered with surgical tape (Durapore,) until day 10. Then, a sterile Nunc Thermanox (Nunc Inc., Naperville, Ill.) plastic ring was placed onto the CAM, the delimited surface gently lacerated with a scalpel blade and a pellet of 10^6 U87MG cells deposited into the center of the ring. […] Digital photos were taken using a Canon 40D camera. At day 17, tumors were carefully removed from the CAM and weighted.

Assay [4] deals with U87MG cells. The conditions noted are these: disclosed in copending PCT/CA2006/000250; cited from earlier work.
The test system of assay [5] is human brain endothelial cells (HBEC). The assay can be described thus: Confocal microscopy of AF647-CIBP-4 in HBEC. In kind it is cell-based. The conditions noted are these: 100 nM AF647 conjugate, 90 min. How it is done: 80 μl of 1 mM Alexa Fluor 647-NHS in DMSO was added to 0.4 ml of recombinant CIBP-4 (0.2 mg/ml) in 100 mM carbonate pH 8.4, and sample was incubated overnight at room temperature. The reaction was stopped with 150 μl of 200 mM ethanolamine pH 8.0. To remove free dye, sample was diluted with 4.5 ml of water and loaded onto 1 ml Co^+2-Talon Metal Affinity column equilibrated with PBS. The column was exhaustively washed with PBS and CIBP-4 eluted with 2 ml of 1 M imidazole in PBS. To remove imidazole from AF647-CIBP-4 conjugate, the sample was concentrated to approximately 200 μl on Biomax (M.W. cut-off 5,000), diluted to original volume with PBS and concentrated again. That process of concentration/dilution was repeated three times. Final volume 0.5 ml (0.14 mg/ml). Recovery 86%.
HBEC (100,000 cell/well in a 24-well format plate) and U87MG (50,000) were respectively seeded on human fibronectin- (40 μg/ml) or poly-L-lysine-coated cover slips (Bellco Biotechnology) in 400 μl HBEC/U87MG media and grown until reached 80% confluence. Cells were then washed twice with DME and incubated in DME for 30 min at 37° C. […] Confocal images of […] were sequentially obtained using 488, 647 and 540-590 nm excitation laser lines to detect DiOC5(3) (510-525 nm emission) and Alexa 647 (670-810 nm emission) and Magic Red™ Cathepsin B (>610 nm) fluorescence.

With `CCCNC(=O)[C@H]1O[C@@H]1C(=O)N[C@H](C(=O)N1CCC[C@H]1C(=O)OC)[C@@H](C)CC` [CA074-ME, reference compound], on cathepsin B, the “inhibition of secreted cathepsin B activity in U87MG CM” value is recorded as ~40%. For the same molecule, the “inhibition of U87MG colony formation in soft agar (efficacy)” value with U87MG cells [1] (10 μM CA074-ME) is given as ~70%.

B1: CIBP4: IGFBP-4 C-terminal fragment (aas 157-258, SEQ ID No. 6) with StreptagII-octahistidine tag (protein)
chain: MLLLLLLLGLRLQLSLGIASKVNGAPREDARPVPQGSCQSELHRALERLAASQSRTHEDLYIIPIPNCDRNGNFHPKQCHPALDGQRGKCWCVDRKTGVKLPGGLEPKGELDCHQLADSFREVDPWSHPQFEKTGHHHHHHHHGGQ
modifications: StreptagII-octahistidine tag; C-terminal fragment of IGFBP-4
With B1, in assay [2], the “inhibition of angiogenesis (CLT formation by HBEC in Matrigel)” value was “reduction in CLT formation”. In assay [3], the “inhibition of angiogenic response induced by U87MG conditioned media and growth factors (bFGF, VEGF, IGF-1)” value was “can inhibit angiogenic response”. In the assay with U87MG cells on CAM (CAM), the “average size of the tumors in each weight interval vs vehicle” value is “similar”, the “increase in small size tumors (0-15 mg) vs vehicle” value is recorded as “three-fold” and the “reduction in number of large size tumors (20-36 mg) vs vehicle” value is listed as 3 fold. Also, the “shift of tumor weight frequency distribution towards smaller tumors vs vehicle” value in the assay on U87MG cells on CAM (CAM, intervals 0-15, 15-20, 20-36 mg) was ~3 fold. Moreover, in the assay with U87MG cells on CAM (CIBP4 250 ng/ml as printed, applied days 11-14, weighed day 17, p<0.005), the “reduction of growth of U87MG cells on CAM (tumor weight) vs vehicle” value was 20-25%. Moreover, in the assay on U87MG cells [4], the “reduction of U87MG colony formation in soft agar” value is “able to reduce U87MG colony formation”. Besides, the “co-localization with lysosomes (Lysotracker) in HBEC” value in assay [5] is “Co-localization”. In addition, the “inhibition of U87MG colony formation in soft agar (efficacy)” value with U87MG cells [1] (20 nM) is ~50%.
